The values below come from patent publication US20220211858A1, “TUBULAR SUPRAMOLECULAR POLYMERS” (priority 2019, published 2022).

Data set [1] can be described thus: Physical stability of TT 1 nanotubes upon dilution in cell medium (CD). It is filed as physicochemical. On the procedure:
The stability of non-ionic TT 1 nanotubes upon dilution in cell medium was evaluated by recording the CD spectrum for a series of prepared dilutions. […] A stock solution of TT 1 nanotube was prepared at a concentration of 1 mM in water and aged overnight. The aged solution was then diluted to 200 μM with cell medium. Further dilutions of the 200 μM TT 1 nanotube in cell medium were prepared at 100 μM, 50 μM, 25 μM, 10 μM, and 5 μM concentration. All diluted solutions were incubated for an additional two days before CD measurements were made. All the CD spectra were recorded from 300 to 440 nm using a 1 mm (for 200 μM, 100 μM, and 50 μM) or 10 mm (for 25 μM, 10 μM, and 5 μM) path length quartz cell. The spectra were collected and normalized from ellipticity (mdeg) to molar ellipticity (deg·cm^2·dmol^−1).

Data set [2] in a line: TEM / cryo-TEM imaging of self-assembled nanostructures (dimensions). It is filed as physicochemical. Here is the method:
About 200 μM stock solutions of corresponding TTs in water were prepared by dissolution of the lyophilized powders. After aging overnight, TEM samples were prepared by depositing 7 μL of the appropriate solution onto a carbon-coated copper grid (Electron Microscopy Services, Hatfield, Pa., USA), wicking away the excess solution with a small piece of filter paper. Next, 7 μL of a 2 wt % uranyl acetate aqueous solution was deposited on the surface for 30 seconds, wicking away the excess solution with filter paper. The grids were then air-dried overnight at room temperature prior to imaging. Bright-field TEM imaging was performed using an FEI Tecnai 12 TWIN Transmission Electron Microscope operated at an acceleration voltage of 100 kV. All TEM images were acquired by a SIS Megaview III wide-angle CCD camera or 16 bit 2K×2K FEI Eagle bottom mount camera.
Cryo-TEM imaging was performed using higher sample concentrations of 800 μM (compared with 200 μM for conventional TEM imaging). Extended imaging times can result in damage to the vitreous ice film caused by the electron beam and so higher concentrations can allow a more rapid visualization that reduces this likelihood. About 6 μL of the appropriate solution was dropped onto a lacey carbon-film-supported TEM copper grid (Electron Microscopy Services, Hatfield, Pa., USA). All the TEM grids used for cryo-TEM imaging were pretreated with plasma air to render the lacey carbon film hydrophilic. A thin film of the sample solution was produced using a Vitrobot with a controlled humidity chamber (FEI). After loading of the sample solution, the lacey carbon grid was blotted using preset parameters and plunged instantly into a liquid ethane reservoir precooled by liquid nitrogen. The vitrified samples were then transferred to a cryo-holder and cryo-transfer stage that was cooled by liquid nitrogen. To prevent sublimation of vitreous water, the cryo-holder temperature was maintained below −170° C. during the imaging process. All images were recorded by a Tecnai 12 microscope with a cryo-holder, and the images were acquired by a 16 bit 2K×2K FEI Eagle bottom mount camera.
Self-Assembly of SAPDs from TT1. To study the self-assembly behavior of the SAPDs, we directly dissolved the lyophilized powders in deionized water at a concentration of 2 mM and neutral pH.

Data set [3] in a line: Biodistribution study in U87 MG tumor-bearing mice. It is filed as in vivo, nude mice. Here is the method:
Mice bearing subcutaneous tumors were established by injecting 100 μL of a U87 MG suspension in serum-free medium (2×10^6 cells) into the right flank of the mice. When the tumor reached a size of −200 mm^3, the mice were randomly grouped and received one of the following 3 treatments via intravenous injection (n=18 for each group): free CPT (4.5 mg/kg), TT 1 (4.5 mg/kg), and TT 1 (15 mg/kg). Three mice from each group were euthanized at pre-determined time points (1, 2, 4, 8, 12, and 24 h). Plasma, major organs, and tumors were collected and stored at −80° C. for further analysis. To determine the amount of free CPT and TT 1 in the samples, 100 mg tumors were mixed with 900 μL acetonitrile (containing 0.1% TFA) and then homogenized using Precellys Evolution Super Homogenizer (Bertin Technologies, France) for 3×40 s (5,600 shakes/min). The resulting suspensions were centrifuged and the supernatants were collected. For plasma, 50 μL of sample was mixed with 450 μL acetonitrile (containing 0.1% TFA) and sonicated for 1 min. The supernatants were collected using centrifugation. All samples were filtered through a 0.22 μm membrane before analysis by a UPLC system (Waters ACQuity™ Ultra Performance LC) equipped with a reverse-phase column (ACQuity UPLC@BEH, C18, 1.7 μm 2.1×150 mm) and a fluorescence detector (ACQuity FLR, Ex/Em=362/430 nm). The column was flushed with a mixture of water (0.1% TFA) and acetonitrile (0.1% TFA) at 0.3 mL/min with the following gradient: 5% acetonitrile (0-1 min), 5-95% acetonitrile (1-5 min), 95% acetonitrile (5-8 min), 95-5% acetonitrile (8-9 min), and 5% acetonitrile (9-10 min). Peaks with retention times of 5.4 min (free CPT) and 6.9 min (TT 1) were monitored.

Structures are written as SMILES. “Also recorded” adds a separate entry of the source.

On to `CC[C@]1(OC(=O)OCCSSC[C@@H](NC(C)=O)C(=O)N[C@@H](CCCCNC(=O)[C@@H](CSSCCOC(=O)O[C@]2(CC)C(=O)OCc3c2cc2n(c3=O)Cc3cc4ccccc4nc3-2)NC(C)=O)C(=O)N[C@@H](CCCCNC(=O)CCOCCOCCOCCOCCOC)C(=O)N[C@@H](CCCCNC(=O)CCOCCOCCOCCOCCOC)C(N)=O)C(=O)OCc2c1cc1n(c2=O)Cc2cc3ccccc3nc2-1` [TT 1], for which, in data set [1] (after one week), the “appearance of solution in cell medium” value is listed as “remained clear after one week; also recorded: remains clear after a week”. Moreover, in data set [1] (cell medium with 10% FBS, 10 and 5 μM), the “change of CD signal upon dilution” value is reported as “slight decreases in intensity; also recorded: slight decrease of CD signal at 389 nm”. The “dissociation of nanotubes upon dilution (CD)” value in data set [1] (cell medium with 10% FBS, concentrations above 25 μM, two days) was “no obvious disassociation; also recorded: minimum dissociation or aggregation”. Also, the “wall thickness measured from toroids” value in data set [2] (TT 1 nanotubes, TEM) came out at 3.0±0.5 nm. In data set [2] (TT 1 nanotubes, toroids, TEM), this compound came in with a hollow interior diameter of 2.5±0.6 nm. The “nanotube diameter after loading” value in data set [2] (loaded with Coumarin 6, TEM) came to 9.8±1.4 nm; in data set [2] (loaded with IR 780, TEM), 10.2±0.9 nm; in data set [2] (loaded with Nile Red, TEM) it was 9.6±1.2 nm; in data set [2] (loaded with Rose Bengal lactone, TEM), 10.7±1.4 nm. Also, in data set [2] (paclitaxel-doped, 200 μM, TEM), the “diameter of PTX-doped nanotubes” value was 10.6±0.9 nm. The “Diameters measured by conventional TEM” value in data set [2] (self-assembled nanotubes in water, 200 μM, n>40) is listed as 8.8 ± 0.8 nm. Also, the “increase of plasma concentration versus free CPT” value in data set [3] (4.5 mg/kg i.v., 1 hour) is “approximately 129 fold”. In addition, in data set [3] (4.5 mg/kg i.v., 1 hour), the “increase of tumor concentration versus free CPT” value came out at 8 fold. Further, the “TT 1 converted to free CPT in the tumor” value in data set [3] (4.5 mg/kg, 1 hour after injection) is 47%; in data set [3] (4.5 mg/kg, 8 hours), 82%; in data set [3] (15 mg/kg, 1 hour after injection) it was 58%; in data set [3] (15 mg/kg, 8 hours), 96%. Also, in data set [3] (i.v.), the “retention in the blood” value was “up to 12 hours”.
